Laboratory results reported in patent US20210017289A1 (AbbVie / Abbott, published 2021).
“And” between values parts separate entries of the source, which are not always exact repeats. Equal values may be shown once. Read-outs that look alike come from different tables or passages of the source.

Experiments:
[1] = target: T1, human OX40-FC (R&D Systems) (human, UniProt P43489 29-216); assay: ELISA on plates coated with human OX40-Fc
T1 construct: Purchased reagent; also called recombinant human OX40; not shown: Fc part of the purchased fusion
T1 sequence: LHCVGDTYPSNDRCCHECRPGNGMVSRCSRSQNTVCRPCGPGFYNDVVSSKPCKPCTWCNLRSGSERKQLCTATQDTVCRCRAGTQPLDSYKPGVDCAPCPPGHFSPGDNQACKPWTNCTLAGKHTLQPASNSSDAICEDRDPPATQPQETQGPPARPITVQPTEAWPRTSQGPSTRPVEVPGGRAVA
Description: Immunolon 4×HB 96-well plates (Thermo Scientific) were coated with 1 μg/mL of human OX40-FC (R&D Systems) at 4° C. overnight. Plates were blocked with phosphate-buffered saline (PBS) containing 1% bovine serum albumin (BSA) for 30 minutes at room temperature and then washed three times with PBST (PBS with 0.1% Tween 20) using a plate washer. OX40-coated plates were then incubated with indicated concentrations of test antibody at room temperature for one hour. Plates were washed four times with PBST and then incubated for 1 hour at room temperature with 100 μL of goat anti-human Fab fragment specific-Biotin (Jackson ImmunoResearch) prepared to a dilution of 1:5000 in PBS containing 1% BSA. Plates were then washed five times in PBST and 100 μL of a 1:1000 dilution of streptavidin-horseradish peroxidase (HRP) (Thermo Scientific) was added to each well and incubated for 30 minutes at room temperature. Plates were subsequently washed five times in PBST and 100 μL of TMB One component (Surmodics) were added to each well and incubated at room temperature (RT) until color developed (approximately 5-10 minutes). Optical density (OD) was read at 650 nm (Molecular Devices Spectromax190).

[2] = target: T2, human OX40 expressed on cells (human, UniProt P43489 29-277); assay: cell-based or functional assay
T2 sequence: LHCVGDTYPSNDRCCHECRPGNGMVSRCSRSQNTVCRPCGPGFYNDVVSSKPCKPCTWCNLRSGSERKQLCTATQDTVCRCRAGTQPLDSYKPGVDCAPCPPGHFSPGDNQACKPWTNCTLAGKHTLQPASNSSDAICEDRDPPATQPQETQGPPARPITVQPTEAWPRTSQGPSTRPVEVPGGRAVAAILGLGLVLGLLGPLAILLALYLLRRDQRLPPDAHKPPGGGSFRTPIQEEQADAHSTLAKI

293s-huOX40-muCRDII+III = target: T3, 293s-huOX40-muCRDII+III; assay: flow cytometry on 293s transfectants, Hu3738 added at 2 µg/mL, Cy5 donkey anti-human IgG
T3 construct: cell-surface chimera, named on the sheet by its cell line; also called human OX40 chimera with murine CRDII and CRDIII replacing human CRDII and CRDIII
T3 receptor chain: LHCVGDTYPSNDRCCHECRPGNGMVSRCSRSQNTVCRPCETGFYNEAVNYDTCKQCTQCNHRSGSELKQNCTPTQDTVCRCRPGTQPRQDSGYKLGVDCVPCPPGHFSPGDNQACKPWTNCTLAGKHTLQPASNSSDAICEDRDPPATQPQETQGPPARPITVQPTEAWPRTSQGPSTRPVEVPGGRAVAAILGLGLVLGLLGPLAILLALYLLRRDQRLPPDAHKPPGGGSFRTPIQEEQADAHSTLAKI
Description: (§1) After plating cells, 50 μL of Hu3738 or isotype control antibody at 2 μg/mL were added to corresponding wells in duplicate for each cell line and allowed to incubate on ice for 30 minutes. Following incubation, 200 μL of Dulbecco's Phosphate Buffered Saline (DPBS) was added into each well and plates were spun down at 1000 rpm for three minutes. Supernatants from each well were removed and 50 μL of Cy5-Donkey anti-Human IgG (Jackson ImmunoResearch) secondary antibody was added at a 1:250 dilution, which was then incubated for 30 minutes on ice in the dark. Following the incubation period, 200 μL of DPBS was added prior to spinning down the plate at 1000 rpm for three minutes. Supernatants were removed and each well was re-suspended with 100 μL of DPBS+1% Formaldehyde. Samples were analyzed on the dual laser FACSCalibur flow cytometer (Becton Dickinson).

293s-huOX40-muCRDI = target: T4, 293s-huOX40-muCRDI; assay: as above
T4 construct: cell-surface chimera, named on the sheet by its cell line; also called human OX40 chimera with murine CRDI replacing human CRDI
T4 receptor chain: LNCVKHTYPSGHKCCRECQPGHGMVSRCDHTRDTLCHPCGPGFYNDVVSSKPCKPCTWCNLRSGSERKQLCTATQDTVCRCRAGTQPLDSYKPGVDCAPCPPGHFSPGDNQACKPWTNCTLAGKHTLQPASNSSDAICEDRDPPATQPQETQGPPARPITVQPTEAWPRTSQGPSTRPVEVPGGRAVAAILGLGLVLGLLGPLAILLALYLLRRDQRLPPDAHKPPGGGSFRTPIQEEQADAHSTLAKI
Description: as §1

293s-huOX40-muCRDIII = target: T5, 293s-huOX40-muCRDIII; assay: as above
T5 construct: cell-surface chimera, named on the sheet by its cell line; also called human OX40 chimera with murine CRDIII replacing human CRDIII
T5 receptor chain: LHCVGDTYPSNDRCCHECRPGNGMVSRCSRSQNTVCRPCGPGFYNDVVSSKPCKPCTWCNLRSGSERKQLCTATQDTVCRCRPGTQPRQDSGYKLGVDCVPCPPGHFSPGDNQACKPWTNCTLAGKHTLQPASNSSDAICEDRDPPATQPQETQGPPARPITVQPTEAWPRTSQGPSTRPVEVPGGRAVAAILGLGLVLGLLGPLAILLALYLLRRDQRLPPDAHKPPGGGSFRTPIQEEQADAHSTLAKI
Description: as §1

[3] = target: T2, human OX40 expressed on cells; assay: cell-based or functional assay; remark: listed apart in the source
[4] = target: T2, human OX40 expressed on cells; assay: cell-based or functional assay; remark: listed apart in the source

B1: Hu3738 (antibody, V domains shown)
VH: EVQLVESGGGLVQPGGSLRLSCAASGFTFSRYGMSWVRQAPGKGLELVATINSNGGRTYYPDSVKGRFTISRDNAKNSLYLQMNSLRAEDTAVYYCAREGITTAYAMDYWGQGTTVTVSS
VL: DIVMTQSPDSLAVSLGERATINCKASQSVDYDGDSYMHWYQQKPGQPPKLLIYAASILESGVPDRFSGSGSGTDFTLTISSLQAEDVAVYYCQQSNEDPRTFGGGTKVEIKR
notes: Humanized antibody; also called exemplary anti-OX40 antibody Hu3738; Hu3738 VH.1b / Hu3738 VL.1
- EC50 [1]: 44 pM
- EC50 With Cross-linker (nM), NF-κB signaling [2]: 0.088 nM
- EC50 Without Cross-linker (nM), NF-κB signaling [2]: 20 nM
- binding result (293s-huOX40-muCRDII+III): no binding (tested: 2 µg/mL)
- binding result (293s-huOX40-muCRDI): binds
- binding result (293s-huOX40-muCRDIII): binds
- EC50 With Cross-linker (nM), NF-κB signaling [3]: 0.02 nM
- EC50 Without Cross-linker (nM), NF-κB signaling [3]: 22 nM
- ADCC reporter activity, EC50 [4]: 0.51 nM and 77 ng/mL
- IFN-γ production by human CD4+ T cells, EC50 [4]: 0.16 nM and 24 ng/mL
- proliferation of human peripheral blood CD4+ T cells, EC50 [4]: 0.11 nM and 16 ng/mL
